What was measured:
purified protein [1] = substrate: O=C(O)C(=O)CC1(C(=O)O)C=CC(O)C=C1; assay: purified protein; type: biochemical, Petunia x hybrida; conditions: 20 mM Tris-HCl pH 8.0, 1 mM EDTA, 37 °C
purified protein [2] = substrate: C=C(O[C@@H]1C=C(C(=O)O)C=C[C@H]1O)C(=O)O; assay: purified protein; type: biochemical, Petunia x hybrida; conditions: 20 mM Tris-HCl pH 8.0, 1 mM EDTA, 37 °C

Row | Protein | Km (purified protein [1]) [µM] | Vmax (purified protein [1]) [µmol/min/mg] | other results
1 | PhADT3L (Petunia x hybrida) (protein) AGAAAVNTGVVNTPASNNTAGHVGASRTDWQSSCAILASKVVSQQQDTEKSGGAGNITAVNGHKILNLDLLPVESNRAKPLTITDLSPAPMHGAQLRVAYQGVPGAYSEAAAGKAYPKCEAIPCDQFEVAFQAVELWIADRAVLPIENSLGGSIHRNYDLLLRHRLHIVGEVQLPVHHCLLALPGVRKEYLTRVISHPQALAQCELTLTKLGLNVAREAVDDTAGAAEYIAANNLRDTAAIASSRAAELYGLDILEQGIQDDLSNVTRFVMLAREPIIPRTDRPFKTSIVFAHDKGTSVLFKVLSAFAFRNISLTKIESRPHRNRPIRLVDDANVGTAKHFEYMFYVDFEASMADVRAQNALAEVQEFTSFLRVLGSYPMDMTPWSPSRDA | 358 ± 32 | 0.125 | –
2 | PhCM2 (Petunia x hybrida) (protein, coding region, N-terminal 6xHis tag (pET-28a), E. coli, Ni-NTA) MACGDYDDKLSLDLIRDSLIRQEDTIIFNLIERIKFPINSTLYKKPSSWFPDFTGSLFQYLFQETEALQSKVGRYLSPEENPFFPDNLPASIVPPSKCPPVLHPVAESININEKILDVYLNQLLPLFCTEADEGNYATTAACDIQLLQAISRRIHYGKFVAEVKFRDCSDEYTPLILAQQDRDALMKLLTFEVVEEMVKKRVAKKAMIFGQEVTLVDNAKEVKCKVDPLLVSRLYDEWIMPLTKHVQVEYLLRRLDQNKLTSI | – | – | Km (purified protein [2]; reaction volume 225 μl): 8.6 ± 1.2 µM; Vmax (purified protein [2]; reaction volume 225 μl): 114 µmol/min/mg
3 | PhCM1 (Petunia x hybrida) (protein) QASATSLGLGNKNRVDETESYTLDGIRHSLIRQEDSIIFSLVERAQYCYNAETYDPDVFAMDGFHGSLVEYIVRETEKLHATVGRYKSPDEHPFFPKVLPEPVLPPMQYPKVLHPIADSININVKIWEMYFENLLPRLVKEGDDGNYGSTAVCDTICVQALSKRIHYGKFVAEAKYRASPEVYNAAIRAQDRNGLMDLLTYPAVEEAIKRRVEIKTRTYGQELHINGPENGGDPVYKIKPSLVAELYGDWIMPLTKEVQVQYLLRRLD | – | – | Km (purified protein [2]): 174 ± 27 µM; Vmax (purified protein [2]): 45.7 µmol/min/mg
4 | PhADT3S (Petunia x hybrida) (protein, short isoform starting at second in-frame ATG (133 residues downstream of first Met), intact catalytic and ACT domains, about 33 kD, N-terminal 6xHis tag (pET-28a), E. coli, Ni-NTA) MHGAQLRVAYQGVPGAYSEAAAGKAYPKCEAIPCDQFEVAFQAVELWIADRAVLPIENSLGGSIHRNYDLLLRHRLHIVGEVQLPVHHCLLALPGVRKEYLTRVISHPQALAQCELTLTKLGLNVAREAVDDTAGAAEYIAANNLRDTAAIASSRAAELYGLDILEQGIQDDLSNVTRFVMLAREPIIPRTDRPFKTSIVFAHDKGTSVLFKVLSAFAFRNISLTKIESRPHRNRPIRLVDDANVGTAKHFEYMFYVDFEASMADVRAQNALAEVQEFTSFLRVLGSYPMDMTPWSPSRDA | 433 ± 73 | 0.113 | –
